In the DeepSol protein solubility set:

Experiment: soluble on expression in E. coli; label from the status in PepcDB or PDB records
With “GTEVEIPVVHDPKGEAVLPSVFEDGTRQGWDWAGESGVKTALTIEEANGSNALSWEFGYPEVKPSDNWATAPRLDFWKSDLVRGENDYVTFDFYLDPVRATEGAMNINLVFQPPTNGYWVQAPKTYTINFDELEEANQVNGLYHYEVKINVRDITNIQDDTLLRNMMIIFADVESDFAGRVFVDNVRFEGA” the “soluble on expression in E. coli” value was “soluble”.
With “GTKMEPMEYLVVDVPSEFQGAIIEKMGPRKGEMTSLQPMGETVRLEFVVPARGLIGLRGELLTETRGTAVMTHTFHDYAPYKGDIPGRKNGVLIAMELGETTAYALDALQPRGILFIGPGVEVYGGMI” the “soluble on expression in E. coli” value was “not soluble”.
For “GVLPVEKCNLEDSACMTSAFQQALPTFVAGLPDHGVEVMDVLDLDDFAFDLSGLQFTLKEGKLKGLKGAVIDNVKWDLKKKNIEVDFHLDATVKGHYTAGGRILILPITGDGQMKLKLKNIHIHLVVSYEMEKDAEGVDHVIFKKYTVTFDVKDNAQFGLTNLFNGNKELSDTMLTFLNQNWKQVSEEFGKPVMEAAAKKIFKNIKHFLAKVPIAEIANV”, the “soluble on expression in E. coli” value was “soluble”.
For “GVRNLAQGPRGCEHYDRACLLKAPCCDKLYTCRLCHDTNEDHQLDRFKVKEVQCINCEKLQHAQQTCEDCSTLFGEYYCSICHLFDKDKRQYHCESCGICRIGPKEDFFHCLKCNLCLTTNLRGKHKCIE”, the “soluble on expression in E. coli” value was “soluble”.
With “GVSETAPASRRGELAVCDAVSGWVTDRRTAVDLRGREVEVLGEVPAAGGSPLRQYFFETRCKADNAEEGGPGAGGGGCRGVDRRHWVSECKAKQSYVRALTADAQGRVGWRWIRIDTACVCTLLSRTGRA” the “soluble on expression in E. coli” value was “soluble”.
For “GVTKEIRIPTLEECDVCHGSGAKPGTQPQTCPTCHGSGQVQMRQGFFAVQQTCPHCQGRGTLIKDPCNKCHGHGRVERS”, the “soluble on expression in E. coli” value was “soluble”.
With “GVVIREALSSSNAVPAIDFDRKELIDIPAYQGPGKNVVRPPVDLDPSYNPFKETGLTEPIRSSRRQSPDMGWNELFKQFEAKRDAEKMAEPPIRSEELFASTDFTPSAVSATPSTDMLCYVHRGRYLVTTLSRGLALVDFHRAHKRILYDRFMADESRRHIEQQQLLFPELLEFNPSDASAVKAAVDELQSVGFDLSPLGVSSYSLLAAPVQIIDCAADVVRDVIHTTLEDGRSSHEQMLELIATQIAEYQAIPCGKTPTAEEASDLLAELFASNDSTYTPDGKLIVSIIEEADIARRFE” the “soluble on expression in E. coli” value was “not soluble”.
In the case of “GWQAFKNDATEIIPELGEYPEPPPELENNKTMNRAENGGRPPHHPFETKDVSEYSCRELHFTRYVTDGPCRSAKPVTELVCSGQCGPARLLPNAIGRGKWWRPSGPDFRCIPDRYRAQRVQLLCPGGEAPRARKVRLVASCKCKRLTRFHNQSELKDFGTEAARPQKGRKPRPRARSAKANQAELENAY”, the “soluble on expression in E. coli” value is reported as “soluble”.
With “HFVKSVEDKAISVTLAQGNIEQNLKWDPNYFYSTLAIYQKLITENLGKTDLIILPESALPTLENAITPFFEGLERAAKETKTEIMVGTVFQDTKSGKLLNSIMTAGNPDFPYQPNTQNRYNKHHLVPFGEYVPLESILRPLNSVFNLPMSAFQSGEAVQPSLIAKKRAFSPAICYEIIFGEQVRQNLKQDTDYLLTLSNDAWFGDSIGPWQHLQMARMRALELGKPLIRATNTGISVFVDAQGKVLAQAPQFIETTLTYKIAPAEGKTPYSVLGNMPLYALSLLFLLLHS” the “soluble on expression in E. coli” value was “not soluble”.
For “HGPAPLDLDKYVEIARLCKYLPENDLKRLCDYVCDLLLEESNVQPVSTPVTVCGDIHGQFYDLCELFRTGGQVPDTNYIFMGDFVDRGYYSLETFTYLLALKAKWPDRITLLRGNHESRQITQVYGFYDECQTKYGNANAWRYCTKVFDMLTVAALIDEQILCVHGGLSPDIKTLDQIRTIERNQEIPHKGAFCDLVWSDPEDVDTWAISPRGAGWLFGAKVTNEFVHINNLKLICRAHQLVHEGYKFMFDEKLVTVWSAPNYCYRCGNIASIMVFKDVNTREPKLFRAVPDSVRASSPSPL”, the “soluble on expression in E. coli” value was “soluble”.
In the case of “HISSQQHEKAIKSYFDEAQTQGVIIIKEGKNLSTYGNALARANKEYVPASTFKMLNALIGLENHKATTNEIFKWDGKKRTYPMWEKDMTLGEAMALSAVPVYQELARRTGLELMQKEVKRVNFGNTNIGTQVDNFWLVGPLKITPVQEVNFADDLAHNRLPFKLETQEEVKKMLLIKEVNGSKIYAKSGWGMGVTPQVGWLTGWVEQANGKKIPFSLNLEMKEGMSGSIRNEITYKSLENLGII”, the “soluble on expression in E. coli” value is reported as “soluble”.
With “HRCVALCIETRPDYCGEKEINQMLKLGATRVELGVQTIYNEILEFCKRGHTVEDTIKATQLLKDSGLKVSYHLMPGMPGSDMEMDKKMFKEIFENPDFKPDMVKIYPCLVIEGTELYEMWKRGEYKPYREEEAIEIISYAKSIMPKWV” the “soluble on expression in E. coli” value was “not soluble”.
For “IDEKGRVIIAGIGRFGQVVNRLVRMSGIETVVLDHDMAAVQIMRRFGVKGFFGDPTRPELLQAAGLAEATVLVVAVDDRENAIKIVRYARQVRPDLHIVSRARDRVHVYELYQAGADDIVRETFDSSIRAGRYVLENMGF”, the “soluble on expression in E. coli” value was “not soluble”.
In the case of “IDIKDVELTADNGKPVYATFFCPKEEIKAAVVIAPALGVDKIFYQDFALWLASYGYLVTTFDYSSMGSADKVHYKESDTTITDWAVFDCKKILEQVSIEIKDKD”, the “soluble on expression in E. coli” value is reported as “not soluble”.
In the case of “IDKKLTTLADLFRPPIDLMHKGSFETAKECGQMQNKWLMINIQNVQDFACQCLNRDVWSNEAVKNIIREHFIFWQVYHDSEEGQRYIQFYKLGDFPYVSILDPRTGQKLVEWHQLDVSSFLDQVTGFLGEHGQLDGLSSS”, the “soluble on expression in E. coli” value is reported as “soluble”.
For “IFIGNLDPEIDEKLLYDTFSAFGVILQTPKIMRDPDTGNSKGYAFINFASFDASDAAIEAMNGQYLCNRPITVSYAFKKDSKG”, the “soluble on expression in E. coli” value was “soluble”.
For “IGDFHYGIGASMSYLNTEVVNVNQAYQEYDYLYTKGNRIGQMYGLEAIGFFNSQQEINNSPQQTFSDVAPGDVKYKDQNGDNRIDEKDIVKMFGSSVPRFYFGFNLNFSYKRLELSADFQGMTGVTVSLLNSPLYSPLVSNGNISNTFLNEEISWTPENKTNATMPRLTTQENLNNYRASSLWYRDGSFLKLRNLLVAYTFPKSQTRFADLKVFVQGTNLFSLDNIHFADPEQLGIAYPSTRSYWAGIKLNF”, the “soluble on expression in E. coli” value was “not soluble”.
In the case of “INYKQLQLQERTNIRKCQELLEQLNGKINLTYRADFKIPMEMTEKMQKSYTAFAIQEMLQNVFLVFRNNFSSTGWNETIVVRLLDELHQQTVFLKTVLEEKQEERLTWEMSSTALHLKSYYWRVQRYLKLMKYNSYAWMVVRAEIFRNFLIIRRLTRNFQN”, the “soluble on expression in E. coli” value is reported as “soluble”.
With “IPMRLLSDCPQFSRKTVKLLTNGGDMLELCYELRLPFVHWISVNQKSSFKRYEISHVYRRAIGHSPPNPCLQADFDIVGGTLSLTEAEVLKVIVDITTHIFHRGSCDIHLNHGDLLDAIWSWAGIKAEHRRKVAELLSMMGSLRPQSSERKLKWVFIRRQLLQELKLPEAVVNRLQTVASRFCGDADQALPRLRGALRADRPTRKALDELSNLLTYLRVWRIEEHVHIDVLMPPTESYHRNLFFQVFLTKENSSGTSNDGVLLAVGGRYDWLVQEVCDREHKMNLPGAVGVSLALETIFQHLPMDLRPIRNEVSTSVLVCSRGGGGLLVQRMELVAELWEKSIKAEFVPTPDPSLTEQYEYANEHEIKCLVIITESGVAQNQIEFVKVRHLELKKEKVVGR” the “soluble on expression in E. coli” value was “soluble”.
For “ISFEINGIKITTYPPPFRIFLEIDNKQEFEKLDRIRKNVDVVVLGFPVGHYDLDEVKNKVKQLVDYGYVVGIDAESPRELKEGVRAGASFVFNLNENNFEELEEIRKEAAFVVAPFNTENRGEITIDLVKKAKQKGFDKLIADPVLSPPLRGLVSSIIGYKYVRETLQDIPILMGILNVTELIDADSIGMNALLTAIAGELGISNLLIMEKGKTRWSSWEVSQATKMISVALKENRLPKDIGIDLLVLKDKRRFRESFNADVIVNRRIEPEMDNTGFAKIFVSEDGFGVEWIGKNKITIKGKDGLSIGRELIRRVKDISKEHAVYIGYELAKAEIAYQLDKNYIQDKPLF”, the “soluble on expression in E. coli” value was “not soluble”.
In the case of “ISGFYMSIMRDITEKRSMELQLFKSEERFREIFENAMDAIIIWSNDGRIVKANQSACKIFELPMNLLLKRKLCDFLVDSQQKYSITKRKYAKYGEIREELLFQMGNGQFKELEFTSKRTILEN”, the “soluble on expression in E. coli” value is reported as “not soluble”.
For “ISKETEEIDEQQVFIDSLSGHAQILYEKYHVLPSITIAQAILESDWGNSELAAKANNLFGVKGNYKGHHVTMETDEVEKGKRKTIRAKFRKYSTFFESMDDHAQLFVRGTSWNKKKYKPVLEAGNYKEAATALQTSGYATDPDYADKISAIVEKYDL”, the “soluble on expression in E. coli” value was “not soluble”.
In the case of “ISRLLAGQLDFRSAIRSVAAEVAHIIPHDHLDVCVLLEDGNYHTAYETGIETAWGDLAGAPVVNSPIRSLLWGEVDFLLADDAMTDPRFHFDGAFKRPIVEQSLRSRLHVPMKVQGAIIAALSCSSQEAGAYTMEDVERARIIADLLTPYFFALRAAEQAQR”, the “soluble on expression in E. coli” value is reported as “not soluble”.
With “ITASGENRNAINDLLGAMCYDEETARTYQGYVAELDNPHTPETEEYGISSFVFKGDRPFDRQRLIAALRSTRGIVRSKGHCWISDRIDMVQVWHQAGPDLRIAPAGYWQSAGITPSNEIVVIGVNFDHAQAQQLLNDAMLSDSEVQQLLSTADAAKS” the “soluble on expression in E. coli” value was “not soluble”.
With “ITFEIAGDKLLMTLVPERLRGETASFDIEANGKVYVERGRRITARHIKALEKDNISQVVVPSEYILGKVASKDYVDLESGEIICPANGEISLETLAKLAQAG” the “soluble on expression in E. coli” value was “not soluble”.
With “IVPDAQDLGKSYGIRPSFIIAQAALDSDFGEKILANKYHNLFGLLAEPGTPSITLNDSSTGKKQEKQFTHYKSWKYSMYDYLAHIKSGATGKKDSYTIMVSVKNPKTLVQKLQDSGFDNDKKYAKKMTEIIDLYDL” the “soluble on expression in E. coli” value was “not soluble”.
In the case of “KAAPEDVRMIMIDPKMLELSIYEGIPHLLAPVVTDMKLAANALNWCVNEMEKRYRLMSFMGVRNLAGFNQKIAEAAARGEKIGNPFSLTPDDPEPLEKLPFIVVVVDEFADLMMTAGKKIEELIARLAQKARAAGIHLILATQRPSVDVITGLIKANIPTRIAFQVSSKIDSRTILDQMGAENLLGQGDMLFLLPGTAYPQRVHGAFASDEEVHRVVEYLKQFGEPDYVDDILSGGGSEELPGIGRSGDDETDPMYDEAVSVVLKTRKASISGVQRALRIGYNRAARLIDQMEAEGIVSAPEHNGNRTILVPLDNA”, the “soluble on expression in E. coli” value is reported as “not soluble”.
For “KAPNLYMTDTTGTYRYLYDVQAKYTILFFWDSQCGHCQQETPKLYDWWLKNRAKGIQVYAANIERKDEEWLKFIRSKKIGGWLNVRDSKNHTDFKITYDIYATPVLYVLDKNKVIIAKRIGYENLDDFLVQYEKSLKTK”, the “soluble on expression in E. coli” value was “not soluble”.
With “KDFLNPKYTLENFIVGEGNRLAYEVVKEALENLGSLYNPIFIYGSVGTGKTHLLQAAGNEAKKRGYRVIYSSADDFAQAMVEHLKKGTINEFRNMYKSVDLLLLDDVQFLSGKERTQIEFFHIFNTLYLLEKQIILASDRHPQKLDGVSDRLVSRFEGGILVEIELDNKTRFKIIKEKLKEFNLELRKEVIDYLLENTKNVREIEGKIKLIKLKGFEGLERKERKERDKLMQIVEFVANYYAVKVEDILSDKRNKRTSEARKIAMYLCRKVCSASLIEIARAFKRKDHTTVIHAIRSVEEEKKKDRKFKHLVGFLEKQAFDKIC” the “soluble on expression in E. coli” value was “soluble”.
With “KDGDFLDMDWHGPNDADAPLVLVLHGLTGSSNSPYVAGLQKAMAAKGWASVALNWRGCSGEPNLLSRSYHSGASEDLAEVIAHLRLLRPLAALYAVGYSLGGNVLLKYLGESGKHSELLGAVAVSVPFRLDECANRIGQGFSKVYQRHFMREMLTYIRDKQQRFQHEGLTEGLAELSALGSLENMRTFWDFDGRVTAPLHGFVDATDYYRRASSRYYLGQIETPTLIIQSRDDPFVFPHSLPEPGELSACTEFELHAKGGHVGFVDGSLRNPTYYLERRIPSWL” the “soluble on expression in E. coli” value was “not soluble”.
